# Measurements from patent US20250320281A1.
# Assays:
# Experiment in all cases: cell-based or functional assay
# [1] = target: HIV-1 Env of isolate MGRM-G-004 (HIV-1)
# [2] = target: HIV-1 Env of isolate MGRM-AE-005 (subtype AE) (HIV-1)
# [3] = target: HIV-1 Env of isolate MGRM-G-001 (HIV-1)
# [4] = target: HIV-1 Env of isolate MGRM-Chronic-B-004 (subtype B pseudovirus) (HIV-1)
# [5] = target: HIV-1 Env of pseudovirus isolate MGRM-G-025 (HIV-1)
# [6] = target: HIV-1 Env of isolate MGRM-F1-008 (pseudovirus) (HIV-1)
# [7] = target: HIV-1 Env of isolate MGRM-D-022 (pseudovirus) (HIV-1)
# [8] = target: HIV-1 Env of isolate MGRM-Chronic-B-024 (subtype B pseudovirus) (HIV-1)
# [9] = target: HIV-1 Env of isolate 92TH021 (pseudovirus) (HIV-1)
# [10] = target: HIV-1 APV13 Env (pseudovirus, clade B) (HIV-1)
# [11] = target: HIV-1 Env of isolate APV_13 (subtype B pseudovirus) (HIV-1)
# [12] = target: HIV-1 Env of isolate MGRM-C-026 (HIV-1)
# [13] = target: HIV-1 Env of isolate MGRM-F1-015 (HIV-1)
# [14] = target: HIV-1 Env of isolate MGRM-Chronic-B-020 (subtype B pseudovirus) (HIV-1)
# [15] = target: HIV-1 Env of isolate JR-CSF (subtype B pseudovirus) (HIV-1) (UniProt P20871)
# [16] = target: HIV-1 Env of isolate 92UG046 (pseudovirus) (HIV-1)
# [17] = target: HIV-1 93UG077 envelope glycoprotein (Env) on pseudovirus (HIV-1)
# [18] = target: HIV-1 Env of isolate 97ZA012 (subtype C) (HIV-1)
# [19] = target: HIV-1 Env of isolate MGRM-AG-006 (subtype AG) (HIV-1)
# [20] = target: HIV-1 Env of isolate MGRM-A-001 (HIV-1)
# [21] = target: HIV-1 Env of isolate MG RM-D-011 (HIV-1)
# [22] = target: HIV-1 Env of isolate MGRM-Chronic-B-017 (subtype B) (HIV-1)
# [23] = target: HIV-1 Env of isolate NL43 (subtype B) (HIV-1)
# [24] = target: HIV-1 envelope glycoprotein (Env) of isolate MGRM-C-023 (HIV-1)
# [25] = target: HIV-1 Env of isolate APV-13 (HIV-1)
# [26] = target: HIV-1 Env of isolate MG RM-D-002 (HIV-1)
# [27] = target: HIV-1 envelope glycoprotein (Env) of isolate MGRM-C-006 (HIV-1)
# [28] = target: HIV-1 Env of isolate 92UG046 (HIV-1)
# [29] = target: HIV-1 Env of isolate 92WR020 (HIV-1)
# [30] = target: HIV-1 Env of isolate MGRM-A-003 (HIV-1)
# Sequence of 4970_K22 (PGT-144) (antibody) (VH): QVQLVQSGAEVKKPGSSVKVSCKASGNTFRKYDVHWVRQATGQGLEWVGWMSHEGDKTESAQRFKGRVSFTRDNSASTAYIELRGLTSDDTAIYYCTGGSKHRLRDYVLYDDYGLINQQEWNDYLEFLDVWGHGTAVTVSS
# Sequence of 4970_K22 (PGT-144) (antibody) (VL): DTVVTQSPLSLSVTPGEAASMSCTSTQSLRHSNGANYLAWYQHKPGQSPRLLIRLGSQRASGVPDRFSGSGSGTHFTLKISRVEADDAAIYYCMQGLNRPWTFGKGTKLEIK
Substance,"IC50 (µg/mL), pseudovirus neutralization [2]","IC50 (µg/mL), pseudovirus neutralization [4]","IC50 (µg/mL), pseudovirus neutralization [5]","IC50, pseudovirus neutralization [6]","IC50, pseudovirus neutralization [7]","IC50 (µg/mL), pseudovirus neutralization [8]",Polyclonal Transfectant Neutralization Index [9],Primary Neutralization Index (B cell culture supernatant) [9],IC50 neutralization [10],"IC50 (µg/mL), pseudovirus neutralization [11]",neutralization IC50 [12],"IC50 (µg/mL), pseudovirus neutralization [13]","IC50 (µg/mL), pseudovirus neutralization [14]","IC50 (µg/mL), pseudovirus neutralization [15]","IC50, pseudovirus neutralization [16]",further results
4970_K22 (PGT-144) (antibody),> 50 µg/mL,–,–,–,–,–,–,–,–,–,–,–,–,–,–,"IC50 (µg/mL), pseudovirus neutralization [1]: > 50 µg/mL; IC50 (µg/mL), pseudovirus neutralization [3]: > 50 µg/mL"
5123_A06 (PGT-125) (antibody),–,0.007 µg/mL,> 50 µg/mL,0.361 mg/L,0.04 mg/L,> 50 µg/mL,50.6,133,0.0128 mg/L,0.007 µg/mL,0.005 mg/L,> 50 µg/mL,0.087 µg/mL,0.004 µg/mL,> 50 mg/L,–
5141_B17 (PGT-126) (antibody),–,0.01 µg/mL,17.1 µg/mL,> 50 mg/L,> 50 mg/L,> 50 µg/mL,2.74,2.3,0.012 mg/L,0.012 µg/mL,0.007 mg/L,> 50 µg/mL,0.021 µg/mL,0.008 µg/mL,> 50 mg/L,"IC50, pseudovirus neutralization [17]: 0.0256 mg/L; IC80 (pseudovirus neutralization) [17]: 0.102 mg/L; IC90 (pseudovirus neutralization) [17]: 0.238 mg/L; IC95 (pseudovirus neutralization) [17]: 0.577 mg/L"
5136_H01 (PGT-131) (antibody),0.017 µg/mL,–,7.75 µg/mL,–,–,–,–,354,–,–,–,–,–,–,–,"IC50 neutralization [18]: 1.81 mg/L; IC50 (µg/mL), pseudovirus neutralization [19]: 0.019 µg/mL; IC50 [20]: > 50 mg/L; IC50 (µg/mL), pseudovirus neutralization [21]: 0.756 µg/mL; IC50 neutralization [22]: > 50 mg/L; IC50 neutralization [23]: > 50 mg/L; IC50 (µg/mL), pseudovirus neutralization [24]: 0.143 µg/mL; neutralization IC50 [25]: 0.189 mg/L; IC50 (µg/mL), pseudovirus neutralization [26]: 11.2 µg/mL; IC50 (µg/mL), pseudovirus neutralization [27]: 0.611 µg/mL; IC50 (µg/mL), pseudovirus neutralization [28]: > 50 µg/mL; IC50 [29]: 0.168 mg/L; IC50 [30]: > 50 mg/L"
4858_P08 (PGT-123) (antibody),–,0.008 µg/mL,0.046 µg/mL,> 50 mg/L,> 50 mg/L,> 50 µg/mL,–,–,0.222 mg/L,0.138 µg/mL,0.001 mg/L,> 50 µg/mL,0.005 µg/mL,0.046 µg/mL,> 50 mg/L,neutralization IC50 [17]: 0.0303 mg/L; neutralization IC80 [17]: 0.143 mg/L; neutralization IC90 [17]: 0.35 mg/L; neutralization IC95 [17]: 0.78 mg/L
5114_A19 (PGT-128) (antibody),0.032 µg/mL,–,0.017 µg/mL,–,–,–,10,6.6,–,–,–,–,–,–,–,"IC50 neutralization [18]: 0.019 mg/L; IC50 (µg/mL), pseudovirus neutralization [19]: 0.009 µg/mL; IC50 [20]: > 50 mg/L; IC50 (µg/mL), pseudovirus neutralization [21]: 0.007 µg/mL; IC50 neutralization [22]: > 50 mg/L; IC50 neutralization [23]: > 50 mg/L; IC50 (µg/mL), pseudovirus neutralization [24]: 0.026 µg/mL; neutralization IC50 [25]: 0.008 mg/L; IC50 (µg/mL), pseudovirus neutralization [26]: 0.011 µg/mL; IC50 (µg/mL), pseudovirus neutralization [27]: 0.014 µg/mL; IC50 (µg/mL), pseudovirus neutralization [28]: > 50 µg/mL; IC50 [29]: 0.005 mg/L; IC50 [30]: > 50 mg/L"
4838_L06 (PGT-121) (antibody),–,0.009 µg/mL,–,> 50 mg/L,> 50 mg/L,0.195 µg/mL,–,–,–,0.251 µg/mL,0.002 mg/L,28.4 µg/mL,0.004 µg/mL,0.027 µg/mL,> 50 mg/L,–
5145_B14 (PGT-127) (antibody),–,0.018 µg/mL,19.3 µg/mL,> 50 mg/L,> 50 mg/L,> 50 µg/mL,0.94,1,–,0.026 µg/mL,0.014 mg/L,> 50 µg/mL,0.05 µg/mL,0.018 µg/mL,> 50 mg/L,–
